Results on seven molecules are retold here after paper PMC9177701, “Taf2 mediates DNA binding of Taf14” (Nature Communications, 2022).

Ends that are not written are not given here. * marks the point of attachment. Crotonyl(E) = C/C=C/C(=O)*

Series [1] has as its system Taf14dET (Saccharomyces cerevisiae). The series is described as follows: EMSA. The note with it: EMSA: 20-25 mM Tris-HCl pH 7.5, 100-150 mM NaCl, 0.2 mM EDTA (+20% glycerol for NCP), 4 °C 10 min, 0.25 pmol/lane; NMR: 50 mM Tris pH 6.6-7.5, 150 mM NaCl or …. Background: A gel shift assay detects complexes by their altered migration in electrophoresis.
Series [2] relates to Taf14dYEATS (Saccharomyces cerevisiae). The series is described as follows: EMSA. The note with it: EMSA: 20-25 mM Tris-HCl pH 7.5, 100-150 mM NaCl, 0.2 mM EDTA (+20% glycerol for NCP), 4 °C 10 min, 0.25 pmol/lane; NMR: 50 mM Tris pH 6.6-7.5, 150 mM NaCl or ….
The target in series [3] is FAM-labeled Taf2CT peptide (S. cerevisiae) (UniProt P23255). The series is described as follows: MST; FAM-labeled Taf2CT peptide kept at 20 nM, Taf14ET varied; 20 mM Tris-HCl pH 7.5, 150 mM NaCl, 0–0.2 mM TCEP; Monolith NT.115; n = 3.
Sequence of FAM-labeled Taf2CT peptide (S. cerevisiae) (P23255 whole entry, looked up, tested part not stated): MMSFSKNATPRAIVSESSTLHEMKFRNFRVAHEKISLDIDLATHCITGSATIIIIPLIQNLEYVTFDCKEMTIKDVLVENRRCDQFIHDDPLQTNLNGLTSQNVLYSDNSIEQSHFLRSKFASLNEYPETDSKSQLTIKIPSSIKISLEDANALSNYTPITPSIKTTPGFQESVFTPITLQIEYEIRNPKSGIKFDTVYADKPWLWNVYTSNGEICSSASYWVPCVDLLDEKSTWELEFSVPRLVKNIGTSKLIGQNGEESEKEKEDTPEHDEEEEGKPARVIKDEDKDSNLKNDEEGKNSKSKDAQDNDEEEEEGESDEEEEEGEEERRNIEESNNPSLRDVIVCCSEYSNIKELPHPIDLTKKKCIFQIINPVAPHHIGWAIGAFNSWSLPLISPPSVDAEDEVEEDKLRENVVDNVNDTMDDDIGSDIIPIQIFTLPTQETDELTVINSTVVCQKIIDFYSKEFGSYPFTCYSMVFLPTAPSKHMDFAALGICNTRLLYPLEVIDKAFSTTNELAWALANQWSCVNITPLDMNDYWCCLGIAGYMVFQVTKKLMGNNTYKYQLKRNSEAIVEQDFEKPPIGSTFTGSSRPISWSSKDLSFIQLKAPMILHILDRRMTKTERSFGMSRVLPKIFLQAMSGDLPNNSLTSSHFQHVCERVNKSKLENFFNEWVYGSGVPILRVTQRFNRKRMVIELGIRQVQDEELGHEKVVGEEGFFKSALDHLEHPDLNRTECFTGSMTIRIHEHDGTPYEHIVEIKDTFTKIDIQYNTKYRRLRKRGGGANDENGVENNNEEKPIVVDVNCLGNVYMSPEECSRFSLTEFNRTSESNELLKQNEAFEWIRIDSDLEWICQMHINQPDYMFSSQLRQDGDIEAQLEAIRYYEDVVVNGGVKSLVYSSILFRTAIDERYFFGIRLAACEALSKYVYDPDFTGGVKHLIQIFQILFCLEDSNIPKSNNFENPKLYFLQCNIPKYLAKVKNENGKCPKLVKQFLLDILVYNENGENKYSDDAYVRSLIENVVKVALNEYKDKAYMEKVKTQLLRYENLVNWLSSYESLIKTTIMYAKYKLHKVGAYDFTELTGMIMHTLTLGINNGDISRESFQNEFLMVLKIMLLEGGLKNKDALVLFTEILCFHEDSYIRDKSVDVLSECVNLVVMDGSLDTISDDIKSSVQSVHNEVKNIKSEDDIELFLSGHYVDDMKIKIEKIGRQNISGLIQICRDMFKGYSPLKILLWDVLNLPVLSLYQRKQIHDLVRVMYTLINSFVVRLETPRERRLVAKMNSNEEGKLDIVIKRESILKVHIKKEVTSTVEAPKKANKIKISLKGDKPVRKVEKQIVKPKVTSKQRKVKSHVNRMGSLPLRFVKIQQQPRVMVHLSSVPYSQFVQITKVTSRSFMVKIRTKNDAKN
The target in series [4] is His-Taf14ET (S. cerevisiae) (UniProt P35189). The series is described as follows: MST; His-tagged Taf14 protein labeled with RED-tris-NTA kept at 20 nM, unlabeled peptide added stepwise; 20 mM Tris-HCl pH 7.5, 150 mM NaCl, 0–0.2 mM TCEP; Monolith NT.115; n = 2 or 3.
Series [5] deals with T1, Taf14_(YEATS) (YEATS domain of Taf14, aa 1–137) (S. cerevisiae, UniProt P35189 1-137, uniformly 15N-labeled).
T1 construct: Taf14, S. cerevisiae, YEATS domain, aa 1–137; source: E. coli Rosetta-2 (DE3) pLysS, minimal media with 15NH4Cl, purified
T1 sequence (looked up): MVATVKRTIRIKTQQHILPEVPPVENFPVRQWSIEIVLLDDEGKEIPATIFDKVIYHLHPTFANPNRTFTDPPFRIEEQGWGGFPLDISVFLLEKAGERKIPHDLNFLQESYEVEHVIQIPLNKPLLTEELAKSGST
The series is described as follows: NMR titration; 1H,15N HSQC of 0.1–0.3 mM uniformly 15N-labeled Taf14 protein, unlabeled peptide added; 298 K; 50 mM Tris-HCl pH 6.6–7.5, 150 mM NaCl, 0–5 mM DTT or 0.2 mM TCEP, or 1x PBS pH 6.6–7.5. To be noted: both partners purified.

Series [6] has as its target T2, His-Taf14FL (S. cerevisiae, UniProt P35189 1-244).
T2 construct: Taf14, S. cerevisiae, aa 1–244; Labelled on the His tag with the His-Tag Labeling Kit RED-tris-NTA (2nd Generation) for MST; source: E. coli Rosetta-2 (DE3) pLysS, purified (Ni-NTA, SEC)
T2 sequence (looked up): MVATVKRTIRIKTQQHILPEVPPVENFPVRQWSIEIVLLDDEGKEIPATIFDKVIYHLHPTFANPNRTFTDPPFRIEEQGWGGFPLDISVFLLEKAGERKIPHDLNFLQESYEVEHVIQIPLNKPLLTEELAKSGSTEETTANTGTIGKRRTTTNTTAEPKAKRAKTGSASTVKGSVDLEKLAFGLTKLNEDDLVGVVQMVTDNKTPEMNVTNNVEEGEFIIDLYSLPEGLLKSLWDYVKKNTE
The series is described as follows: MST; His-tagged Taf14 protein labeled with RED-tris-NTA kept at 20 nM, unlabeled peptide added stepwise; 20 mM Tris-HCl pH 7.5, 150 mM NaCl, 0–0.2 mM TCEP; Monolith NT.115; n = 2 or 3. The note with it: both partners purified.

Series [7] has as its target T3, His-Taf14_(YEATS) (S. cerevisiae, UniProt P35189 1-137).
T3 construct: Taf14, S. cerevisiae, YEATS domain, aa 1–137; Labelled on the His tag with the His-Tag Labeling Kit RED-tris-NTA (2nd Generation) for MST; source: E. coli Rosetta-2 (DE3) pLysS, purified (Ni-NTA, SEC)
T3 sequence (looked up): T1 sequence (looked up)
Described as above. The note with it: both partners purified.

The target in series [8] is T4, Taf14FL (full-length Taf14, aa 1–244) (S. cerevisiae, UniProt P35189 1-244).
T4 construct: Taf14 (transcription initiation factor subunit 14), S. cerevisiae, aa 1–244, a 244-residue protein; In the EMSAs (functional rows) GST-Taf14 or Taf14 proteins were used; source: E. coli Rosetta-2 (DE3) pLysS, purified (SEC for cross-linking; 15N-labeled for NMR)
T4 sequence (looked up): T2 sequence (looked up)
The series is described as follows: NMR titration; 1H,15N HSQC of 0.1–0.3 mM uniformly 15N-labeled Taf14 protein, unlabeled peptide added; 298 K; 50 mM Tris-HCl pH 6.6–7.5, 150 mM NaCl, 0–5 mM DTT or 0.2 mM TCEP, or 1x PBS pH 6.6–7.5. To be noted: both partners purified.

The target of series [9] is Taf14FL (Saccharomyces cerevisiae, UniProt P35189 1-244). The series is described as follows: EMSA; EMSA: 20-25 mM Tris-HCl pH 7.5, 100-150 mM NaCl, 0.2 mM EDTA (+20% glycerol for NCP), 4 °C 10 min, 0.25 pmol/lane; NMR: 50 mM Tris pH 6.6-7.5, 150 mM NaCl or 1x PBS, 298 K. To be noted: protein: recombinant; 15N-labelled for NMR; 5' overhang 1 nt (extra T on strand 2 as printed).

Series [10] deals with Taf14FL;Taf2CT (Saccharomyces cerevisiae;Saccharomyces …, UniProt P35189;P23255 1-244;1392-1402, |). The series is described as follows: EMSA; Taf14:Taf2CT 1:10; augmented vs Taf14FL alone; EMSA: 20-25 mM Tris-HCl pH 7.5, 100-150 mM NaCl, 0.2 mM EDTA (+20% glycerol for NCP), 4 °C 10 min, 0.25 pmol/lane; NMR: 50 mM Tris pH 6.6-7.5, 150 mM NaCl or 1x PBS, 298 K. The note with it: 15N-labelled for NMR;; 5' overhang 1 nt (extra T on strand 2 as printed).

Take 601 Widom DNA 147 bp: the binding signal (fold tighter than Taf14FL) in series [1] and in series [2] was greater than 6 throughout.

In the case of “Taf14ET (ET domain of Taf14, aa 168–243) (from UniProt P35189 168-243) (domain or fragment)”, the Kd – broadly, the concentration at which binding is half-saturated – in series [3] was 1.6 µM.

“Taf14_(Linker) peptide (aa 145–169 of Taf14) (from UniProt P35189 145-169)”: the Kd in series [4] worked out at 640 µM.

B1: H3K9cr_(5-13) peptide (residues 5–13 of H3) (peptide, UniProt P61830 6-14, looked up)
peptide: QTARK(Crotonyl(E))STGG
notes: also called H3K9cr peptide; source: synthetic peptide (Synpeptide)
For B1, in [5], the binding result is reported as “binds”.

B2: Taf2CT peptide (aa 1392–1402 of Taf2) (peptide, UniProt P23255 1392-1402, looked up)
peptide: SRSFMVKIRTK
notes: Taf2, subunit of yeast TFIID, C-terminal hxhKh motif-containing tail, aa 1392–1402; also called Taf2 peptide; C-terminal tail of Taf2; source: synthetic peptide (Synpeptide)
In the case of B2, the Kd worked out at 0.7 µM in series [6] and 6 µM in [7].

For ARTKQTARKSTGGKAPRKQ (peptide, UniProt P61830 2-20, looked up, crotonyl-lysine at 9, the NMR methods list only H3K9cr_(5-13)) [H3K9cr_(1-19) peptide], the binding result in [8] is on record as “binds”.

B3: 37 bp non-specific dsDNA (dsDNA)
DNA 1: CGTGTCAGATATATACATCCGATATCAGATCTCGTCA
DNA 2: TTGACGAGATCTGATATCGGATGTATATATCTGACACG
For B3, the binding result in series [9] and in series [10] was “binds” each time.
